6 molecules from patent US20240270846A1 (published 2024) can be followed below.

Test [1] has as its target T1, biotin-labeled human CD137 fused to human IgG1 Fc fragment (human, biotin-labeled).
T1 construct: also called human CD137-Fc; biotin-human CD137-Fc
The test can be described thus: bead ELISA, IgG on biotin-human CD137-Fc; control competitor: free human IgG1 Fc 62.5 pmol.

In test [2] the target is T1, biotin-labeled human CD137 fused to …. The test is described as follows: bead ELISA, IgG on biotin-human CD137-Fc; competitor: free CD3 epsilon 62.5 pmol. (In general: In an ELISA, binding on a coated surface is turned into a signal by an enzyme label.)
Test [3] has the same target. The test is described as follows: bead ELISA, IgG on biotin-human CD137-Fc; decrease with free CD3 epsilon 62.5 pmol against free Fc 62.5 pmol.
For test [4], the target named is T2, biotin-labeled human CD137 fused to human IgG1 Fc fragment (human, biotin-labeled).
T2 construct: also called human CD137-Fc; biotin-human CD137-Fc
The test can be described thus: bead ELISA, IgG on biotin-human CD137-Fc; signal with free CD3e 62.5 pmol against free Fc 62.5 pmol.

Test [5] concerns the target T2, biotin-labeled human CD137 fused to …. The test is described as follows: bead ELISA (chemiluminescence), IgG on biotin-human CD137-Fc on streptavidin beads; competitor free CD3 epsilon 62.5 pmol.
The target is the same in test [6]. The test is described as follows: bead ELISA (chemiluminescence), IgG on biotin-human CD137-Fc on streptavidin beads; control competitor free human Fc 62.5 pmol.

B1: dBBDu186/L106 (antibody, V domains shown)
VH: QVQLVESGGGLVQPGRSLRLSCAASGFTFSNAWMHWVRQAPGKGLEWVAQIKDRSNQYATYYAPSVKGRFTISRDDSKNSIYLQMNSLKTEDTAVYYCHYVHYAQASTVLPAFGVDAWGQGTTVTVSS
VL: DIVMTQSPLSLPVTPGEPASISCSTSEELLHINRFIFLHWYQQKPGQAPRLLIYKVANRFMGVPDRFSGSGSGTDFTLKISRVEAEDVGVYYCAQGSQVPFTFGQGTKLEIK
notes: Purified IgG; Fab genes of the panning output converted into IgG format
For B1, in test [1], the “ELISA signal, Free Fc 62.5 pmol” value was 9860. Moreover, the “ELISA signal, Free CD3e 62.5 pmol” value in test [2] came to 3090. For the same molecule, in test [3], the Signal decrease is 68.7%.

B2: dBBDu189/L119 (antibody, V domains shown)
VH: QVQLVESGGGLVQPGRSLRLSCAASGFTFSNAWMHWVRQAPGKGLEWIAQIKDRSNQYATYYAPSVKGRFTISRDDSKNSIYLQMNSLKTEDTAVYYCHYVHYAQASSLLPSFGVDAWGQGTTVTVSS
VL: DIVMTQSPLSLPVTPGEPASISCTASQELVHINRFIFLHWYQQKPGQAPRLLIYKVSNRFIGVPDRFSGSGSGTDFTLKISRVEAEDVGVYYCAQGSQVPFTFGQGTKLEIK
notes: as for B1
For B2, the “ELISA signal, Free Fc 62.5 pmol” value in test [1] came to 88100. The “ELISA signal, Free CD3e 62.5 pmol” value in test [2] came out at 20400. The Signal decrease in test [3] is 76.9%.

B3: dBBDu186/L108 (antibody, V domains shown)
VH: QVQLVESGGGLVQPGRSLRLSCAASGFTFSNAWMHWVRQAPGKGLEWVAQIKDRSNQYATYYAPSVKGRFTISRDDSKNSIYLQMNSLKTEDTAVYYCHYVHYAQASTVLPAFGVDAWGQGTTVTVSS
VL: DIVMTQSPLSLPVTPGEPASISCRTSEELLHINRFTFLHWYQQKPGQAPRLLIYKVSNRFMGVPDRFSGSGSGTDFTLKISRVEAEDVGVYYCAQGSAVPFTFGQGTKLEIK
notes: as for B1
As for B3, the “ELISA signal, Free Fc 62.5 pmol” value in test [1] was 83600. Besides, in test [2], the “ELISA signal, Free CD3e 62.5 pmol” value was 50800. In test [3], this molecule displayed a Signal decrease of 39.2%.

B4: dBBDu_H115/L039 (antibody, human IgG1, V domains shown)
VH: QVQLVESGGGLVQPGRSLRLSCAASGFTFSNAWMHWVRQAPGKGLEWVAQIKDKANSYNTYYAPSVKGRFTISRDDSKNSIYLQMNSLKTEDTAVYYCRYVHYGSSYGFLFAGYGVDAWGQGTTVTVSS
VL: DIVMTQSPLSLPVTPGEPASISCTSSQSLLHANRNTYLHWYQQKPGQAPRLLIYKVSNRFSGVPDRFSGSGSGTDFTLKISRVEAEDVGVYYCAQGTSAPFTFGQGTKLEIK
notes: Full length IgG (human IgG1 CH1-Fc heavy chain, kappa light chain)
For the molecule B4, in test [4], the Signal decrease is 97.2%. Further, in test [5], the “ELISA signal with Free CD3e 62.5 pmol” value amounted to 1550. Also, the “ELISA signal with Free Fc 62.5 pmol” value in test [6] turned out to be 55800.

B5: dBBDu_H115/L014 (antibody, human IgG1, V domains shown)
VH: QVQLVESGGGLVQPGRSLRLSCAASGFTFSNAWMHWVRQAPGKGLEWVAQIKDKANSYNTYYAPSVKGRFTISRDDSKNSIYLQMNSLKTEDTAVYYCRYVHYGSSYGFLFAGYGVDAWGQGTTVTVSS
VL: DIVMTQSPLSLPVTPGEPASISCTSSQSLLHQNRNTYLHWYQQKPGQAPRLLIYKVSNRFNGVPDRFSGSGSGTDFTLKISRVEAEDVGVYYCAQGTANPFTFGQGTKLEIK
notes: as for B4
Regarding B5, the Signal decrease in test [4] is 97.9%. Besides, in test [5], the “ELISA signal with Free CD3e 62.5 pmol” value stood at 1510. In addition, the “ELISA signal with Free Fc 62.5 pmol” value in test [6] came out at 72100.

B6: dBBDu_H115/L008 (antibody, V domains shown)
VH: QVQLVESGGGLVQPGRSLRLSCAASGFTFSNAWMHWVRQAPGKGLEWVAQIKDKANSYNTYYAPSVKGRFTISRDDSKNSIYLQMNSLKTEDTAVYYCRYVHYGSSYGFLFAGYGVDAWGQGTTVTVSS
VL: DIVMTQSPLSLPVTPGEPASISCQSSEELLHANRKTYLHWYQQKPGQAPRLLIYKVQNRFSGVPDRFSGSGSGTDFTLKISRVEAEDVGVYYCAQGTATPFTFGQGTKLEIK
notes: Full length IgG (human IgG1 CH1-Fc heavy chain, kappa light chain); also called Du115/DUL008
Turning to B6, the Signal decrease in test [4] came to 98.1%. The “ELISA signal with Free CD3e 62.5 pmol” value in test [5] stood at 1450. Moreover, the “ELISA signal with Free Fc 62.5 pmol” value in test [6] was 76900.
